Experimental data as given in patent US20240301052A1 (LANOVA MEDICINES DEVELOPMENT, published 2024).

T1: rat SLC34A2 (rat, UniProt Q9JJ09 1-695)
T1 construct: whole, on cells
T1 sequence (looked up): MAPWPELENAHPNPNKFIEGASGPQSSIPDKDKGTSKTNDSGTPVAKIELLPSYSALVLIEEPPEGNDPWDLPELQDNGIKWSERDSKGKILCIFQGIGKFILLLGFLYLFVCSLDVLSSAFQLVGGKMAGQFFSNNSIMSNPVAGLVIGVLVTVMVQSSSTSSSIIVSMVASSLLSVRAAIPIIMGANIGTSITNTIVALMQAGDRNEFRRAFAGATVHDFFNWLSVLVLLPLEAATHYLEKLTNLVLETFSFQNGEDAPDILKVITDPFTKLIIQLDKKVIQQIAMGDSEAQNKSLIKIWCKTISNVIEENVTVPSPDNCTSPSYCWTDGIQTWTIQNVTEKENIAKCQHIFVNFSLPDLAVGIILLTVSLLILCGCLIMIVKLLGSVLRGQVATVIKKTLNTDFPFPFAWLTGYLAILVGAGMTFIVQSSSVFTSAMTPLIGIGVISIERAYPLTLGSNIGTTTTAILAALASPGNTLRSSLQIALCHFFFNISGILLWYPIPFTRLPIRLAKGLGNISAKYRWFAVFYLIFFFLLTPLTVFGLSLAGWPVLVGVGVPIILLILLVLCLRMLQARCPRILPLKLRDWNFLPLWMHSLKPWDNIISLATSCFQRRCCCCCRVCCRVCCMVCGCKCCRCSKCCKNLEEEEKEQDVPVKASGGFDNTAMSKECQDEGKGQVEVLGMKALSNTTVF

T2: human SLC34A2 (human, UniProt O95436 1-690)
T2 construct: whole, on cells; also called human solute carrier 34 A2; NaPi2b
T2 sequence (looked up): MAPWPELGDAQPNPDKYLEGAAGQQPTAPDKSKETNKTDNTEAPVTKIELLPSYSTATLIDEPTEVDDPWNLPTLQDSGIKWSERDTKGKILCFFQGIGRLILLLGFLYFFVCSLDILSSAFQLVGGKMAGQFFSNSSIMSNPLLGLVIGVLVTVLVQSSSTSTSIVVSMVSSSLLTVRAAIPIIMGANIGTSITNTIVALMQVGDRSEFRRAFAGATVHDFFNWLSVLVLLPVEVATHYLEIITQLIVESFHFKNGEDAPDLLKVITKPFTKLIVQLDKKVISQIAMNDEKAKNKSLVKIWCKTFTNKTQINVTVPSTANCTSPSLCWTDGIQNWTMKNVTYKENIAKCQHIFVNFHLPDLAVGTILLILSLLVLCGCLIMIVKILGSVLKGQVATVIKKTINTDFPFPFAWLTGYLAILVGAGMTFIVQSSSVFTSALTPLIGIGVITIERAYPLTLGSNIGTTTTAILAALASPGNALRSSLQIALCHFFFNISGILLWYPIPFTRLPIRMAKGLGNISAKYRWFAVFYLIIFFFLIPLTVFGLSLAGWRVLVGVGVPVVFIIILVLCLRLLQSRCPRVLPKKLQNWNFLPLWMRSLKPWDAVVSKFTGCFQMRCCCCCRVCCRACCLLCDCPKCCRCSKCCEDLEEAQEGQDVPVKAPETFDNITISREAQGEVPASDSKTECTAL

T3: Rhesus SLC34A2 (Rhesus, UniProt F7HDA3 1-690)
T3 construct: whole, on cells
T3 sequence: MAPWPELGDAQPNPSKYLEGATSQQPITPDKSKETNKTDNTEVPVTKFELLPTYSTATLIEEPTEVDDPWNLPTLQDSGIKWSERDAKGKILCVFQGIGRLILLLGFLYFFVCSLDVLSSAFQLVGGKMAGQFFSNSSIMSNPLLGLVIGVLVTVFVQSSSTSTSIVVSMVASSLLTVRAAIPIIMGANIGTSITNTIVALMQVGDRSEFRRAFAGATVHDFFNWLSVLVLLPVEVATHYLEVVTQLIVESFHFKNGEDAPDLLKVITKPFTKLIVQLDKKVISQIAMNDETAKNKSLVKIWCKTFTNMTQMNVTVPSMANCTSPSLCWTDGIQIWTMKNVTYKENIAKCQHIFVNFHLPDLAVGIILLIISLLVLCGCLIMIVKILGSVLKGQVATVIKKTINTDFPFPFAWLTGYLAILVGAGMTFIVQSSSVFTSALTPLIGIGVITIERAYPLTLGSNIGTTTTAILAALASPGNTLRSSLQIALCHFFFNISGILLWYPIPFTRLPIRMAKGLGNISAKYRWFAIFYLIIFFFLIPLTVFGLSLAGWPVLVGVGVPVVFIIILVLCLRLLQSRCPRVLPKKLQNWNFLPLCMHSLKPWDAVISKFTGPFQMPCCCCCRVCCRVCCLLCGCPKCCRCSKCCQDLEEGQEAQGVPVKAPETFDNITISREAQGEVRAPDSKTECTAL

B1: 63A11D5B4.p1.z9 hIgG1 (antibody, V domains shown)
VH: QVQLVQSGAEVVKPGASVKMSCKTSGYTFITYNMHWVRQAPGQGLEWIGAIYPGSGDTSYNQKFKGRVTLTADKSTSTAYMELSSLRSEDTAVYYCSISTIITTGAVDYWGQGTLVTVSS
VL: DIQMTQSPSSLSASVGDRVTITCKASQDVGTAVAWYQQKPGKVPKLLIYWTSTRHTGVPSRFSGSGSGTDFTLTISSLQPEDVATYYCQQYSRIPLTFGGGTKVEIK
notes: humanized hIgG1
B2: 30H9B8F9.p1.z5 hIgG1 (antibody, V domains shown)
VH: QVQLVQSGAEVKKPGASVKVSCKTSGYTFTTNNMHWVRQAPGQGLEWIGAIYPGSGATAYNQKFKGRVTMTADTSTSTVYMELSSLRSEDTAVYYCARGMYGHGAMDYWGQGTLVTVSS
VL: DIQLTQSPSFLSASVGDRVTITCKASQDVGTAVAWYQQKPGKAPKLLIYWATTRHSGVPSRFSGSGSGTEFTLTISSLQPEDFATYYCQQYSSNPLTFGQGTKLEIK
notes: humanized hIgG1
B3: 62G10E4G8.p3.z15 hIgG1 (antibody, V domains shown)
VH: QVQLVQSGAEVVKPGASVKMSCKASGYTFPSYITHWVKQAPGQGLEWIGAIYPGNADTSYIQKFKGRATLTADKSTSTAYMELSSLRSEDTAVYYCARGTYGTSAWFTYWGQGTLVTVSS
VL: EIVLTQSPATLSVSPGERATLSCRARQNIGNNLYWYQQKPGQSPRLLIKYASQSISGIPSRFSGSGSGTDFTLTISSLQSEDFAVYFCQQSFSWPLTFGQGTKLEIK
notes: humanized hIgG1
B4: xi62G10E4G8 hIgG1 (antibody, V domains shown)
VH: QVQLQQSGAEVVKPGASVKMSCKASGYTFPSYITHWVKQTPGQGLEWIGAIYPGNGDTSYIQKFKGKATLTADKSSSTAYMQLSSLTSEDSAVYYCARGTYGTSAWFTYWGQGTLVTVSA
VL: DIVLTQSPATLSVTPGDSVSLSCRARQNIGNNLYWYQQKSHESPRLLIKYASQSISGIPSRFSGSGSGTDFTLTINSVETEDFGVYFCQQSFSWPLTFGAGTKLELK
notes: chimeric, hIgG1
B5: 91C9F1.p1.z7 hIgG1 (antibody, V domains shown)
VH: QVQLVQSGAEVKKPGSSVKVSCKTSGFFFTEYIIHWVRQAPGQGLEWIGGIIPNNDVTNYKQNFRGRVTLTADKSTSTAYMELSSLRSEDTAVYYCARWRNAYYSAMDSWGQGTTVTVSS
VL: DIQVTQSPSSLSTSVGDRVTITCTASQDVGTAVAWYQQKPGKSPKLLIYWASTRHTGVPERFTGSGSGTDFTLTISSVQPEDVATYFCQQYRTSPLTFGVGTKVEIK
notes: humanized hIgG1
B6: xi91C9F1 hIgG1 (antibody, V domains shown)
VH: EVQLQQSGPELVKPGTSVKISCKTSGFFFTEYIIHWVKQSHGRSLEWIGGIIPNNGVTNYKQNFRGKAALTADKSSNTAYMELRSLTSEDSAVYYCARWRNGYYSAMDSWGQGTSVTVSS
VL: DIVVTQSHKFMSTSLGDRVSITCTASQDVGTAVAWYQQKPGHSPKLLIYWASTRHTGVPERFTGSGSGTDFTLTITNVQSEDLADYFCQQYRTSPLTFGVGTKLELK
notes: chimeric, hIgG1
B7: xi30H9B8F9 hIgG1 (antibody, V domains shown)
VH: QVQLQQPGAELVKPGASVKMSCKTSGYTFTTNNMHWVKQTPGQGLEWIGAIYPGNGATAYNQKFKGKATLTADKSSSTAYMQLSSLTSEASAVYYCARGMYGHGAMDYWGQGTSVIVSS
VL: DIVMTQSHKFMSRSVGDRVRITCKASQDVGTAVAWYQQKPGQSPKLLIYWATTRHSGVPDRFTGSGSGTDFIFTISNVQSEDLADYFCQQYSSNPLTFGAGTKLELK
notes: chimeric, hIgG1
B8: xi63A11D5B4 hIgG1 (antibody, V domains shown)
VH: QVQLQQPGAELVKPGASVKMSCRTSGYTFITYNMHWVKQTPGQGREWIGAIYPGNGDTSYNQKFKGKATLTADKSSSTAYMQLNSLTSEDSAVYYCSISTIITTGAVDYWGQGTSVTVAS
VL: DIVMTQSHKFMSTSVGDRVSITCKASQDVGTAVAWYQQKAGQSPKLLIYWTSTRHTGVPDRFTGSGSGTDFTLIIRSLQSEDLADYFCQQYSRIPLTFGSGTKLEIK
notes: chimeric, hIgG1

Columns and labels:
[1] = target: T1, rat SLC34A2; assay: FACS, HEK293/Rat SLC34A2 cells
[2] = target: T2, human SLC34A2; assay: FACS, RMG-1 cells
Procedure, shortened: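 Flow-cytometric binding of chimeric antibodies (8-point, 4-fold dilutions from 200 nM) to RMG-1 cells, 60 min at 4° C, followed by fluorescent secondary antibody for 30 min at 4° C.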

[3] = target: T3, Rhesus SLC34A2; assay: FACS, HEK293/Rhesus SLC34A2 cells

EC50 [1] [nM]	EC50 [2] [nM]	Top (MFI) [2] [MFI]	EC50 [3] [nM]	Top (MFI) [3] [MFI]	Binder
3.04	–	–	–	–	B1
1.81	–	–	–	–	B2
4.04	–	–	–	–	B3
–	3.65	9370	3.7	39100	B4
2.62	–	–	–	–	B5
–	1.3	9230	3.9	15500	B6
–	0.99	9470	1.9	47900	B7
–	5.32	9770	4.6	45500	B8
